B1: Microcephalin (Homo sapiens), Q8NEM0 (parent)
chain: MAAPILKDVVAYVEVWSSNGTENYSKTFTTQLVDMGAKVSKTFNKQVTHVIFKDGYQSTWDKAQKRGVKLVSVLWVEKCRTAGAHIDESLFPAANMNEHLSSLIKKKRKCMQPKDFNFKTPENDKRFQKKFEKMAKELQRQKTNLDDDVPILLFESNGSLIYTPTIEINSRHHSAMEKRLQEMKEKRENLSPTSSQMIQQSHDNPSNSLCEAPLNISRDTLCSDEYFAGGLHSSFDDLCGNSGCGNQERKLEGSINDIKSDVCISSLVLKANNIHSSPSFTHLDKSSPQKFLSNLSKEEINLQRNIAGKVVTPDQKQAAGMSQETFEEKYRLSPTLSSTKGHLLIHSRPRSSSVKRKRVSHGSHSPPKEKCKRKRSTRRSIMPRLQLCRSEDRLQHVAGPALEALSCGESSYDDYFSPDNLKERYSENLPPESQLPSSPAQLSCRSLSKKERTSIFEMSDFSCVGKKTRTVDITNFTAKTISSPRKTGNGEGRATSSCVTSAPEEALRCCRQAGKEDACPEGNGFSYTIEDPALPKGHDDDLTPLEGSLEEMKEAVGLKSTQNKGTTSKISNSSEGEAQSEHEPCFIVDCNMETSTEEKENLPGGYSGSVKNRPTRHDVLDDSCDGFKDLIKPHEELKKSGRGKKPTRTLVMTSMPSEKQNVVIQVVDKLKGFSIAPDVCETTTHVLSGKPLRTLNVLLGIARGCWVLSYDWVLWSLELGHWISEEPFELSHHFPAAPLCRSECHLSAGPYRGTLFADQPAMFVSPASSPPVAKLCELVHLCGGRVSQVPRQASIVIGPYSGKKKATVKYLSEKWVLDSITQHKVCAPENYLLSQ
B2: Serine/threonine-protein phosphatase 1 regulatory subunit 10 (Mus musculus), Q80W00 (parent)
chain: MGSGPIDPKELLKGLDSFLTRDGEVKSVDGISKIFSLMKEARKMVSRCTYLNIILQTRAPEVLVKFIDVGGYKLLNNWLTYSKTTNNIPLLQQILLTLQHLPLTVDHLKQNNTAKLVKQLSKSSEDEELRKLASVLVSDWMAVIRSQSSTQPAEKDKKKRKEEGKSRTTLPERPLTEVKAETRAEEAPEKKKEKPKSLRTTAPSHAKFRSTGLELDTPSLVPVKKNSSTVVVSDKYNLKPIPLKRQSATAAPGDAAPPAEKKYKPLNTAPNTTKEIKVKIIPPQPMEGLGFLDALNSAPVPGIKIKKKKKVLSPTAAKPSPFEGKTSTEQSTAKPSSPEPAPPAEPMDTDRPGTPVPPVEVPELMDAASSEPGALDAKPVDSPGDPNQLTRKGRKRKTVTWPEEGKLREYFYFELDETERVNVNKIKDFGEAAKREILSDRHAFETARRLSHDNMEEKVPWVCPRPLVLPSPLVIPGSNSQERYIQAEREKGILQELFLNKESPHEPDPEPYEPIPPKLIPLDEECAMDETPYVETLEPGGSGGSPDGAGGSKLPPVLANLMGSMGAGKSPQGPGGGGINVQEILTSIMGSPNSHPSEELLKQPDYSDKLKQMLVPHGLLGPGPVANGFPPGGPGGPKGMQHFPPGPGGPMPGPHGGPGGPVGPRLLGPPPPSRGGDPFWDGPGDPMRGGPMRGGPGPAPGPYHRGRGGRGGNEPPPPPPFRGARGGRSGGGPPNGRGGPGGGGMVGGGGHRPHEGPGGSMGSGHRSHDGPGGNMGSGHRSHDGPGGNMGGSGGHRSHEGPGHGGPHGHRPHDVPSHRGHDHRGPPPHEHRGHDGHGGGGHRGHDGGHSHGGDMSNRPVCRHFMMKGNCRYENNCAFYHPGVNGPPLP
B3: Telomeric repeat-binding factor 2 (Homo sapiens), Q15554 (parent)
chain: MAAGAGTAGPASGPGVVRDPAASQPRKRPGREGGEGARRSDTMAGGGGSSDGSGRAAGRRASRSSGRARRGRHEPGLGGPAERGAGEARLEEAVNRWVLKFYFHEALRAFRGSRYGDFRQIRDIMQALLVRPLGKEHTVSRLLRVMQCLSRIEEGENLDCSFDMEAELTPLESAINVLEMIKTEFTLTEAVVESSRKLVKEAAVIICIKNKEFEKASKILKKHMSKDPTTQKLRNDLLNIIREKNLAHPVIQNFSYETFQQKMLRFLESHLDDAEPYLLTMAKKALKSESAASSTGKEDKQPAPGPVEKPPREPARQLRNPPTTIGMMTLKAAFKTLSGAQDSEAAFAKLDQKDLVLPTQALPASPALKNKRPRKDENESSAPADGEGGSELQPKNKRMTISRLVLEEDSQSTEPSAGLNSSQEAASAPPSKPTVLNQPLPGEKNPKVPKGKWNSSNGVEEKETWVEEDELFQVQAAPDEDSTTNITKKQKWTVEESEWVKAGVQKYGEGNWAAISKNYPFVNRTAVMIKDRWRTMKRLGMN
partner: B2 chain
B4: TERF1-interacting nuclear factor 2 (Homo sapiens), Q9BSI4 (parent)
chain: MATPLVAGPAALRFAAAASWQVVRGRCVEHFPRVLEFLRSLRAVAPGLVRYRHHERLCMGLKAKVVVELILQGRPWAQVLKALNHHFPESGPIVRDPKATKQDLRKILEAQETFYQQVKQLSEAPVDLASKLQELEQEYGEPFLAAMEKLLFEYLCQLEKALPTPQAQQLQDVLSWMQPGVSITSSLAWRQYGVDMGWLLPECSVTDSVNLAEPMEQNPPQQQRLALHNPLPKAKPGTHLPQGPSSRTHPEPLAGRHFNLAPLGRRRVQSQWASTRGGHKERPTVMLFPFRNLGSPTQVISKPESKEEHAIYTADLAMGTRAASTGKSKSPCQTLGGRALKENPVDLPATEQKENCLDCYMDPLRLSLLPPRARKPVCPPSLCSSVITIGDLVLDSDEEENGQGEGKESLENYQKTKFDTLIPTLCEYLPPSGHGAIPVSSCDCRDSSRPL

Variants of B1 are the subject of the first assay. As to conditions: with terf2_human TERF2, Q15554.
Turning to Y330A;L332A, the “effect of a mutation on the interaction” value was “disrupting interaction”.

The variants in a further assay derive from B2. Particulars: with terf2_human TERF2, Q15554.
As to Y236A;L238A, the “effect of a mutation on the interaction” value is “disrupting interaction”.

In the next assay the parent is B3. As to conditions: with pp1ra_mouse Ppp1r10, Q80W00.
As to F162A, the “effect of a mutation on the interaction” value was “disrupting interaction strength”.

Variants of B4 are the subject of a further assay. As to conditions: with terf2_human TERF2, Q15554.
MATPLVAGPAALRFAAAASWQVVRGRCVEHFPRVLEFLRSLRAVAPGLVRYRHHERLCMGLKAKVVVELILQGRPWAQVLKALNHHFPESGPIVRDPKATKQDLRKILEAQETFYQQVKQLSEAPVDLASKLQELEQEYGEPFLAAMEKLLFEYLCQLEKALPTPQAQQLQDVLSWMQPGVSITSSLAWRQYGVDMGWLLPECSVTDSVNLAEPMEQNPPQQQRLALHNPLPKAKPGTHLPQGPSSRTHPEPLAGRHANAAPLGRRRVQSQWASTRGGHKERPTVMLFPFRNLGSPTQVISKPESKEEHAIYTADLAMGTRAASTGKSKSPCQTLGGRALKENPVDLPATEQKENCLDCYMDPLRLSLLPPRARKPVCPPSLCSSVITIGDLVLDSDEEENGQGEGKESLENYQKTKFDTLIPTLCEYLPPSGHGAIPVSSCDCRDSSRPL [F258A;L260A]: the “effect of a mutation on the interaction” value is “decreasing interaction”.

These data come from IntAct's records for PubMed 19287395.
